Results taken from US7384773 (Pfizer, dated 2008).
Non-standard residues stand in square brackets, D forms with d. No end group written: not given here. Sta = CC(C)C[C@H](N)[C@@H](O)CC(=O)O

Biological target: T1, CHO cell expressed recombinant human beta secretase proteolytically cleaved with HIV protease (human, UniProt P56817 61-453, glycosylated (CHO cell expressed))
T1 construct: N-terminus at V40 after cleavage of the F39-V40 bond; The transmembrane and cytoplasmic domains are deleted; also called HIV protease treated beta secretase; processed enzyme
T1 sequence (P56817 other isoform, or with tags, fused parts or gaps): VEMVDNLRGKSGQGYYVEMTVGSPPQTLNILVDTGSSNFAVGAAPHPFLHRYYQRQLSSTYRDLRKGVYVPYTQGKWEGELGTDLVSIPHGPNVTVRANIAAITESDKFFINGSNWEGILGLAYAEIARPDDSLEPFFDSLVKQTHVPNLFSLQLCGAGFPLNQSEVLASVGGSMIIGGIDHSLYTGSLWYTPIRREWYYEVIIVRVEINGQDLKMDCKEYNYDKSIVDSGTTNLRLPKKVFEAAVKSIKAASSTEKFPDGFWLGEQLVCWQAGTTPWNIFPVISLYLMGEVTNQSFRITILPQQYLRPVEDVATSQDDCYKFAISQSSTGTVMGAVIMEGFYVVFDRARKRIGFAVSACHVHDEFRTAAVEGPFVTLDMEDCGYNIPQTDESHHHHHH
Assay: affinity chromatography, peptide immobilised on resin

B1: synthetic peptide Ser-Glu-Val-Asn-Sta-Val-Ala-Glu-Phe-Arg-Gly-Gly-Cys (Sta=statine) (peptide)
peptide: SEVN[Sta]VAEFRGGC
modifications: also: coupled to Sulfolink resin (via Cys)
B1: binds.
